From paper PMC8189816, “Molecular Basis for the Interactions of Human Thioredoxins with Their Respective Reductases” (Oxidative Medicine and Cellular Longevity, 2021) come the findings set out here.

Residue numbers refer to the chain shown, from its start. In names and notes the source's numbering stands.

T1: recombinant selenocysteine-containing rat TrxR1 (rat, UniProt O89049 1-499, selenocysteine (selenocysteine-containing; low degree of incorporation presumed by the paper))
T1 construct: rat cytosolic thioredoxin reductase 1, selenocysteine-containing; Used for all enzymatic assays (insulin reduction); also called recombinant selenocysteine-containing TrxR
T1 sequence (looked up): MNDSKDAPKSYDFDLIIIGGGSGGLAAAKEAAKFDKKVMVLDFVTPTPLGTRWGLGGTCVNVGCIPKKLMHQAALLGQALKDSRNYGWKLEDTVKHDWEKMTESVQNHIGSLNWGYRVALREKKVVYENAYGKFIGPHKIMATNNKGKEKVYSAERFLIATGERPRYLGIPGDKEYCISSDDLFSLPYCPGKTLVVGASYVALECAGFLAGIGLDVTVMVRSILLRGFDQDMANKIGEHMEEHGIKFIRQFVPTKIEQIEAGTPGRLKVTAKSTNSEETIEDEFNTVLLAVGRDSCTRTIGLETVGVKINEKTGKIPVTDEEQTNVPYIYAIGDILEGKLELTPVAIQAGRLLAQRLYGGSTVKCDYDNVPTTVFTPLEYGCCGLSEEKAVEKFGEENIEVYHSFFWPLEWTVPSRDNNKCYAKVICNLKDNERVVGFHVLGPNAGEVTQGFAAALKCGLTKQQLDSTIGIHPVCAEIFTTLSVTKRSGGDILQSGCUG

B1: human Trx1 K39E (natural protein)
chain: MVKQIESKTAFQEALDAAGDKLVVVDFSATWCGPCKMIEPFFHSLSEKYSNVIFLEVDVDDCQDVASECEVKCMPTFQFFKKGQKVGEFSGANKEKLEATINELV
B2: human Trx1 A17R,I53R (natural protein)
chain: B1 chain with A17R, E39K, I53R
B3: human Trx1 C73H (natural protein)
chain: B1 chain with E39K, C73H
B4: human Trx1 S67H (natural protein)
chain: B1 chain with E39K, S67H
B5: human Trx1 Q63R (natural protein)
chain: B1 chain with E39K, Q63R
B6: human Trx1 Q63R,K94E (natural protein)
chain: B1 chain with E39K, Q63R, K94E
B7: human Trx1 K36E (natural protein)
chain: B1 chain with K36E, E39K
B8: human Trx1 D60N (natural protein)
chain: B1 chain with E39K, D60N
B9: human Trx1 D58,60,61N (natural protein)
chain: B1 chain with E39K, D58N, D60N, D61N
B10: human Trx1 K72E (natural protein)
chain: B1 chain with E39K, K72E
B11: human Trx1 K94E (natural protein)
chain: B1 chain with E39K, K94E
B12: human thioredoxin 1 (Trx1), wild-type (natural protein)
chain: B1 chain with E39K
B13: human Trx1 C32,35S (redox-inactive active site double mutant) (natural protein, UniProt P10599 1-105, looked up)
chain: B1 chain with C32S, C35S, E39K
notes: human cytosolic thioredoxin 1, both active site cysteinyl residues exchanged for seryl residues; also called hTrx1C32,35S; double cysteinyl mutant

For one experiment, the target named is recombinant selenocysteine-containing rat TrxR1 (rat) (UniProt O89049).
Experiment: not given
Settings: not given
With B1, the KM of TrxR1 for the Trx1 variant, insulin reduction-coupled assay amounted to 1.45 µM.

With B2, the KM of TrxR1 for the Trx1 variant, insulin reduction-coupled assay worked out at 2.73 µM.

With B3, the KM of TrxR1 for the Trx1 variant, insulin reduction-coupled assay turned out to be 1.24 µM.

Turning to B4, the KM of TrxR1 for the Trx1 variant, insulin reduction-coupled assay is 1.36 µM.

Turning to B5, the KM of TrxR1 for the Trx1 variant, insulin reduction-coupled assay is 6.37 µM.

For B6, the KM of TrxR1 for the Trx1 variant, insulin reduction-coupled assay stood at 7.09 µM.

For B7, the KM of TrxR1 for the Trx1 variant, insulin reduction-coupled assay is 9.82 µM.

B8: the KM of TrxR1 for the Trx1 variant, insulin reduction-coupled assay was 3.26 µM.

As for B9, the KM of TrxR1 for the Trx1 variant, insulin reduction-coupled assay was 5.83 µM.

In the case of B10, the KM of TrxR1 for the Trx1 variant, insulin reduction-coupled assay was found to be 2.22 µM.

Consider B11, for which the KM of TrxR1 for the Trx1 variant, insulin reduction-coupled assay worked out at 3.78 µM.

The target of another experiment is human thioredoxin reductase 1 (TrxR1) U498C mutant (human) (UniProt Q16881). Put plainly: differential scanning fluorimetry; 10 uM hTrxR (U498C), hTrx1 0 to 100 uM, Sypro Orange 1:500, 50 mM Tris, 1 mM EDTA, pH 7.4; Tm of the first denaturation step of TrxR plotted against log [Trx] (Hill plot), EC50 converted to Kd.
Settings: not given
A general note: DSF heats the sample and reads unfolding from a dye or from intrinsic fluorescence.
In turn, B1 showed a Kd of 9.68 µM.

As for B12, the dissociation constant (Kd) came out at 13.6 µM.

Molecule B7 gave a Kd of 5.28 µM. Compared with the last molecule, the Kd is about 2.6-fold lower.

For B13, the dissociation constant (Kd) worked out at 9.8 µM.

In another experiment the target is T1, recombinant selenocysteine-containing …. As to the kind of experiment: enzyme inhibition kinetics (insulin reduction assay, NADPH depletion); 1.25 nM recombinant rat selenocysteine-containing TrxR, 150 uM NADPH, 160 uM insulin, 50 mM Tris-EDTA pH 7.5; Lineweaver-Burk plots, Ki from secondary plot of slopes against the concentration of the redox-inactive mutant. The following applies: both partners purified.
For the molecule B13, the inhibition constant (Ki) was 5.3 µM.

In general, Kd refers to the concentration at which binding is half-saturated. Higher therefore signals weaker binding. As usually defined, the Ki is the equilibrium dissociation constant of an inhibitor or competing ligand from its target.
